# Test results reported in patent US20040241754A1, “Modulating neuronal plasticity” (The Salk Institute for Biological Studies, priority 2003, published 2004).
# Entries after “also recorded” stand apart in the source; their conditions may differ. Square brackets hold non-standard residues; d marks the D form. Ends that are not written are not given here. pS = N[C@@H](COP(=O)(O)O)C(=O)O
# T1: GRIP PDZ4-6 (Rattus norvegicus, UniProt P97879)
# T1 construct: corresponding to GRIP1 (amino acid 448-792); made in house; host or cells: E. coli BL21
# T1 sequence (P97879 448-792): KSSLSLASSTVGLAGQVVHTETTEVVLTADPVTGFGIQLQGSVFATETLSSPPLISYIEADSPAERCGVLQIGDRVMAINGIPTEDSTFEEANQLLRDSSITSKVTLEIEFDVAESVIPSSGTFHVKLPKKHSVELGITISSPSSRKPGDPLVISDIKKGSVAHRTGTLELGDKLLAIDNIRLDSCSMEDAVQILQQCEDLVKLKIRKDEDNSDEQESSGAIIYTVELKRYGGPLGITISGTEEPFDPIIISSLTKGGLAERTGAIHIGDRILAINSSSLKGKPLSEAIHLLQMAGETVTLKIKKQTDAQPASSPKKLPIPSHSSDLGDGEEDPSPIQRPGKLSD
# Columns and labels:
# [1] = tested on: mossy fiber synapses of hippocampal CA3 pyramidal neurons; assay: Mossy fiber LTP, whole-cell patch clamp in hippocampal slices; format: cell-based, mice; details: for LTP (potentiation of the EPSC after tetanic stimulation): peptide 50 μM in patch electrode (postsynaptic), 25 to 30 minutes after tetanic stimulation; for LTP PPR (paired pulse ratio after LTP induction) / control PPR (paired pulse ratio before LTP induction): 40 ms interval; for effect on tetanus induced LTP: peptide in patch electrode (postsynaptic); for LTP (potentiation of EPSCs after tetanic stimulation): bath application 5 μg/ml
# Protocol: The role of the GluR2 subunit in LTP at mossy fiber terminals was evaluated in whole cell patch clamp experiments using hippocampal CA3 pyramidal neurons. Briefly, transverse hippocampal slices (350 μm) were made from P12-18 mice (strain 129SvEv) as previously described (Contractor et al., Neuron 29, 209-16. (2001)). Slices were transferred to a recording chamber, and whole-cell patch clamp recordings made from visually identified pyramidal cells in the CA3 region of the hippocampus. The recording electrode (i.e., patch electrode) is filled with an “internal” solution described below. A seal between the glass of the electrode and the membrane of the cell is made. The seal is then “broken through” by pushing the electrode through the membrane to gain low resistance access to the cell interior and enable voltage clamping of the cell membrane. This also allows dialysis of the cell with test reagents such as peptides and antibodies. A stimulating electrode is attached to a current source and allows current to stimulate action potentials while a reference electrode is placed in the recording bath. The composition of the internal solution was: 95 mM CsF, 25 mM CsCl, 10 mM Cs-HEPES, 10 mM Cs-EGTA, 2 mM NaCl, 2 mM Mg-ATP, 10 mM QX-314, 5 mM TEA-Cl, 5 mM 4-AP, pH adjusted to 7.3 with CsOH.
# Peptides were added directly to the internal solution on the day of the experiment from frozen stocks in protease inhibitors made up in phosphate buffered saline (PBS). To avoid leakage of peptides or antibodies into the extracellular space, pipette tips were filled with normal internal solution and then the pipette was backfilled with peptide/antibody containing internal fluid. The final concentration of peptides was 50 μM in all experiments. The final concentration of protease inhibitors were: bestatin 2 μg/ml, leupeptin 25 ng/ml, pepstatin 35 ng/ml, aprotinin 100 ng/ml.
# In control experiments where peptides were not included, internal solutions were made up in exactly the same way with protease inhibitors in PBS but lacking any added peptide. Antibodies were made up in PBS stock and added directly to the internal solution at a final concentration of 20 μg/ml. The pH and osmolarity of all internal solutions were checked before use. Series resistances (Rs) were generally <10M and were continuously monitored throughout the duration of the experiment. […] Experiments using mutant mice were performed with heterozygous breedings blind to the genotype of the animal.
# Mossy fiber EPSCs were evoked with a monopolar glass electrode positioned in the stratum lucidum. EPSCs were evaluated using a 40 ms interval between recordings. All recordings were made in the continuous presence of bicuculline (10 μM), picrotoxin (50 μM) and the NMDA receptor antagonist D-AP5 [D(-)-2-Amino-5-phosphonopentanoic acid; 50 μM]. The group II mGluR agonist, LCCG-1 (10 μM), which selectively depresses mossy fiber transmission, was applied at the end of each experiment. LTP was induced by tetanic stimulation comprising three 1 s stimulations (100 Hz) with a 10 s interval. Data are presented as mean±SEM. Parameters were compared using the Student's unpaired t-test where not specified, and the K-S test, p<0.05 was considered significant.
# Cumulative probability is determined by ranking the EPSC data set from the highest to the lowest value from 20 to 30 minutes post tetanization. Each point is graphed with its corresponding percentile. […] The lowest LTP value was about 40% signified by the lowest point on the 1 st graph (open circles) and the largest LTP was about 160%.
# GRIP PDZ4-6 = target: T1, GRIP PDZ4-6; assay: Competitive binding of 35S-EphB2 to His-GRIP-PDZ4-6; details: concentrations of up to 10 μM peptide; listed as GluR2ctPO4
# Protocol: A competitive binding assay was prepared to determine if the LTP inhibitory effects of the GluR2ct peptide were mediated through disruption of binding between Eph receptors and PDZ domain 6 of GRIP (Torres et al., Neuron 21, 1453-63. (1998)) as opposed to disruption of binding between the GluR2 subunit and the GluR2-binding PDZ 4 and 5 domains of GRIP (Dong et al., Nature 386, 279-84. (1997)). For this purpose, a binding assay was established between GRIP PDZ domain fragments (His-GRIP-PDZ4-6) and an EphB2 carboxy terminal fusion protein labeled with ^35S-methionine (^35S-EphB2).
# Briefly, the carboxy terminal region of EphB2 corresponding to mouse EphB2 receptor (amino acid 930-993) was generated by PCR from mouse brain library and subcloned into pGEX2TK (Pharmacia). The GRIP(PDZ4-6) construct, corresponding to GRIP1 (amino acid 448-792) was obtained by PCR from an adult rat hippocampal library and subcloned into pRSET vector. E coli (strain BL21) were transformed with His-GRIP(PDZ4-6) and GST-EphB2 and protein production induced with IPTG. GST-EphB2 protein was purified on glutathionine beads and ^35S-EphB2 cleaved from GST with thrombin (1 U/μg). GRIP(PDZ4-6) protein was purified on Ni-NTA agarose, and eluted with imadazole. ^35S-EphB2 (50 nM) was incubated with (15 μg) of His-GRIP(PDZ4-6) protein in PBS buffer with protease inhibitors for 2 hrs at 22° C. in the absence or presence of peptides. ^35S-EphB2 binding to His-GRIP(PDZ4-6) was determined after a 45 min incubation with Ni-NTA agarose and vacuum filtration onto Whatman GFB filter circles (pretreated with 3% BSA). Filters were washed with ice-cold PBS buffer, allowed to equilibrate overnight in ECOLUME scintillation cocktail (ICN pharmaceuticals, Irvine Calif.), and specific counts measured in a scintillation counter. Non-specific binding was defined as the residual binding measured in the absence of His-GRIP(PDZ4-6).
# [2] = tested on: mossy fiber synapses of hippocampal CA3 pyramidal neurons; assay: Forskolin-mediated potentiation of mossy fiber EPSCs; format: cell-based, mice; details: for forskolin potentiation of mossy fiber EPSCs after pre-application of Fc fusion protein: Fc fusion protein bath applied before forskolin; for effect on forskolin enhancement / mossy fiber transmission: bath application
# [3] = target: presynaptic ephrin-B ligands; assay: cell-based or functional assay
# [4] = peptide 50 μM in patch electrode
# [5] = Fc fusion protein, bath application
molecule,measurement,setting,value
"LHLHGTGIQV [EphA7 peptide, reference compound]",LTP (potentiation of the EPSC after tetanic stimulation),[1],250±46%
same,LTP PPR (paired pulse ratio after LTP induction),[1]; [4],2.3±0.22
same,control PPR (paired pulse ratio before LTP induction),[1]; [4],2.8±0.15
same,PTP (post-tetanic potentiation),"[1]; peptide 50 μM in patch electrode, immediately following tetanic stimulation",990±180%
same,paired pulse ratio after LTP induction versus pretetanic,[1]; peptide in patch electrode,significantly reduced relative to pretetanic recording
R2ctPO4: phosphorylated GluR2/3 peptide; same as SEQ ID NO: 1 except the serine is phosphorylated (NVYGIE[pS]VKI) [reference compound],LTP (potentiation of the EPSC after tetanic stimulation),[1],210±19%
same,LTP PPR (paired pulse ratio after LTP induction),[1]; [4],2.5±0.16
same,control PPR (paired pulse ratio before LTP induction),[1]; [4],3.0±0.18
same,effect on tetanus induced LTP,[1],little effect on induction of LTP
same,effect on tetanus induced LTP,[1]; listed as GluR2ctPO4,do not inhibit LTP
same,displacement of labeled EphB2 from GRIP PDZ4-6,GRIP PDZ4-6,unable to displace binding; also recorded: do not inhibit binding of EphB2 to GRIP
"C=C[C@@]1(C)CC(=O)[C@]2(O)[C@@]3(C)[C@@H](O)CCC(C)(C)[C@@H]3[C@H](O)[C@H](OC(C)=O)[C@@]2(C)O1 [forskolin, reference compound]",potentiation of mossy fiber EPSCs by forskolin,"[2]; bath application of forskolin alone, 20-30 minutes after application",275±38%
"N[C@H](C(=O)O)[C@H]1C[C@@H]1C(=O)O [LCCG-1, (2S,1′S,2′S)-2-(carboxycyclopropyl)glycine, reference compound]",effect on mossy fiber EPSC,"[1]; applied at the end of each experiment, 10 μM",caused inhibition of the EPSC
"ephrin-B1-Fc: mouse ephrin (Met 1 to Ser 229), a linker, Human gamma heavy chain (Pro 100 to Lys 330) and (His)5 (protein, left off: a dimerising Fc or GST) chain (part 1 of 2): ATPLAKNLEPVSWSSLNPKFLSGKGLVIYPKIGDKLDIICPRAEAGRPYEYYKLYLVRPEQAAACSTVLDPNVLVTCNKPHQEIRFTIKFQEFSPNYMGLEFKKYHDYYITSTSNGSLEGLENREGGVCRTRTMKIVMKVGQDPNAVTPEQLTTSRPSKESDNTVKTATQAPGRGSQGDSDGKHETVNQEEKSGPGAGGGGSGDSIEGRMD chain (part 2 of 2): HHHHH",PTP (post-tetanic potentiation),[1]; [5],430±100%
same,effect on LTP induction,[1]; [5],significantly impair LTP induction
same,effect on basal synaptic transmission / baseline EPSC amplitudes,[1]; [5],did not alter the baseline EPSC amplitudes; also recorded: does not affect basal transmission
same,effect on post-tetanic potentiation / short-term plasticity,[1]; [5],significantly impaired
same,"paired pulse ratio, effect",[1]; [5],no significant difference in PPR
same,LTP (potentiation of EPSCs after tetanic stimulation),[1]; Fc fusion protein,139±12%
same,forskolin potentiation of mossy fiber EPSCs after pre-application of Fc fusion protein,[2],219±15%
same,effect on forskolin enhancement / mossy fiber transmission,[2],does not affect Forskolin enhancement
"EphB2-Fc fusion protein (Fc fusion, mouse, not shown: a dimerising Fc or GST) chain (part 1 of 2): VEETLMDSTTATAELGWMVHPPSGWEEVSGYDENMNTIRTYQVCNVFESSQNNWLRTKFIRRRGAHRIHVEMKFSVRDCSSIPSVPGSCKETFNLYYYEADFDLATKTFPNWMENPWVKVDTIAADESFSQVDLGGRVMKINTEVRSFGPVSRNGFYLAFQDYGGCMSLIAVRVFYRKCPRIIQNGAIFQETLSGAESTSLVAARGSCIANAEEVDVPIKLYCNGDGEWLVPIGRCMCKAGFEAVENGTVCRGCPSGTFKANQGDEACTHCPINSRTTSEGATNCVCRNGYYRADLDPLDMPCTTIPSAPQAVISSVNETSLMLEWTPPRDSGGREDLVYNIICKSCGSGRGACTRCGDNVQYAPRQLGLTEPRIYISDLLAHTQYTFEIQAVNGVTDQSPFSPQFASVNITTNQAAPSAVSIMHQVSRTVDSITLSWSQPDQPNGVILDYELQYYEKELSEYNATAIKSPTNTVTVQGLKAGAIYVFQVRARTVAGYGRYSGKMYFQTMTEAEYQTSIKEKLPLIVGDIEGRMD chain (part 2 of 2): HHHHH",LTP after tetanic stimulation in the presence of EphB2-Fc,[3],134%
same,basal EPSC amplitude during bath application (5 µg/ml),[3],145%
same,"forskolin potentiation of mossy fiber EPSCs 30 mins after washout, after EphB2-Fc",[3],118%
same,post-tetanic potentiation,[3],420%
same,potentiation of baseline EPSC amplitudes on bath application,[3],148%
"EphB2-Fc: mouse EphB2 (Met 1 to Lys 546), a linker, Human gamma heavy chain (Pro 100 to Lys 330) and (His)5 (protein, left off: a dimerising Fc or GST) chain (part 1 of 2): VEETLMDSTTATAELGWMVHPPSGWEEVSGYDENMNTIRTYQVCNVFESSQNNWLRTKFIRRRGAHRIHVEMKFSVRDCSSIPSVPGSCKETFNLYYYEADFDLATKTFPNWMENPWVKVDTIAADESFSQVDLGGRVMKINTEVRSFGPVSRNGFYLAFQDYGGCMSLIAVRVFYRKCPRIIQNGAIFQETLSGAESTSLVAARGSCIANAEEVDVPIKLYCNGDGEWLVPIGRCMCKAGFEAVENGTVCRGCPSGTFKANQGDEACTHCPINSRTTSEGATNCVCRNGYYRADLDPLDMPCTTIPSAPQAVISSVNETSLMLEWTPPRDSGGREDLVYNIICKSCGSGRGACTRCGDNVQYAPRQLGLTEPRIYISDLLAHTQYTFEIQAVNGVTDQSPFSPQFASVNITTNQAAPSAVSIMHQVSRTVDSITLSWSQPDQPNGVILDYELQYYEKELSEYNATAIKSPTNTVTVQGLKAGAIYVFQVRARTVAGYGRYSGKMYFQTMTEAEYQTSIKEKLPLIVGDIEGRMD chain (part 2 of 2): HHHHH",LTP PPR,[1]; [5],2.2 ±0.2
same,PTP (post-tetanic potentiation),[1]; [5],420±85%
same,control PPR,[1]; [5],2.5±0.3
same,effect on LTP induction,[1]; [5],inhibits subsequent tetanus induced LTP
same,"paired pulse ratio, effect",[1]; [5],"small, non-significant reduction in the baseline PPR; also recorded: not significantly reduced"
same,LTP (potentiation of EPSCs after tetanic stimulation),[1]; Fc fusion protein,134±13%
same,increase in the basal EPSC amplitude,[1]; bath application 5 μg/ml for twenty minutes during baseline recording,145±13%
same,forskolin potentiation of mossy fiber EPSCs after pre-application of Fc fusion protein,[2],118±10%
same,effect on forskolin enhancement / mossy fiber transmission,[2],inhibits subsequent forskolin effects
same,potentiation of baseline amplitudes,[2]; bath applied before forskolin,148±19%
